Experimental data published in patent US20160053277A1, “Compositions Having Dicamba Decarboxylase Activity and Methods of Use” (PIONEER HI-BRED INTERNATIONAL, INC., priority 2013, published 2016).

B1: 58 (protein)
chain: MARVIALEEHYATTEFLRGPGTWLASRPGIVEPAGDLGDGRIAAMDQAGVDLAVLSLAAPGVEQLDPDDAVRLARDCNDQLAAAVRRYPDRLAGFATVPTSAPDRAADELERAVRGLGFPGAVINGHSRGRYLDDPFFEPVLARAAELQAPIYLHPTIPPAGVIESSYAGFAEPVTFALATVGWGWHINTATHALRMILGGVFDRHPSLQMIIGHMGEATSFMLPRFDATLKPELTGLNHPVSSYLRENFHYTFANFNDHATYANLVAQVGIERVAFSADYPFGSMVDARAFLDGLPLSDDERAAISHRNAEKLLGL
modifications: Mycobacterium colombiense
B2: 57 (protein)
chain: MAKLICVEEHVLDPAVGAATQSLVRAEAPYLPDWGSRVLDGRHVADRSRPHVIAPSESARKALEMGEPRLADMDAASIDMQVLSYGGFPQLLPAAQAIDLNRAANDKLALAAQAHPARFAGFATLPWQAPEAAARELERAVKQLGLKGALINGRPGDTFLDDARYAPILAAFDELKVPLYVHPGLPLPAVQAPYYGGFERELSARLAMFAWGWHNEAGIQVVRMLLAGVFDRHPRLQLISGHWGEMVPFFLQRLEDSIPQEASGLQRPIVQTYREHVYISPSGMFTLPHFQFIHALMGAQRILYSIDYPYQSLDGARAFIERLPISDTDKALIAHRNAERLLHL
modifications: Collimonas fungivorans
B3: 56 (protein)
chain: MAKIICLEEHYLDSELGRACMPVALEQAPFLGDWGKTVADGHNPDRSRPQIEKNALINAKGADLGSRRLRDMDEAGITLQILSVGGFPQLAPEDEAVTLNTAANDRLAEAVRNHPDRFAAFATLPWAQPKDAENELVRAVEKLGFKGALLNGRPSSCFLDHPDYDSLLSRFNKLNVPLYLHPGLPLKSVQQAYFTGFSAEVNARLSMFGWGWHHEAGIHLLRLMLSGAFDKYPNMQVISGHWGEMLPFWLQRLDDSLPLAATGLSRTLTRTFQEHVYVTPSGMLTLPHFKFIYELMGAERILFSVDYPYQTLDGVKTFIDSLPVNKAEKEAIAFRNAERLLGITA
modifications: Enterobacter aerogenes
B4: 51 (protein, listed as Mycobacterium gilvum)
chain: MARVIAIEEHYAHPGLQPAEALANLRKHPQLARIQDKLEDLGAGRLADMDAAGIDMQVLSHTVPGAEALPAAQAVDVVRQTNDDLAEVIAAHPDRFAGFAALPMRDPQAAATELQRAVGTLGFCGAMINGLIEGRFLDHPDFTPLLSTAADLGVPLYLHPSFPPPQVAQIYFGGLPPVLADLLATAGWGWHAETALHVLRLISTGVFDRLPELRVIVGHMGEMIPFALARIDTVLSPMTELRQPVAQYFQTNVWFTTSGYTTFPPLQCALSTVGIDRLIFSVDYPYTDNASARALLDTAPISPVDREKLAHATVEALLRV
B5: 53 (protein, listed as Granulicella tundricola)
chain: MARTITLEEHFVTDSFLRATGAYDKPAPPWLAQLQPKLLDLGDGRIAAMDEAGIDLQVLSLAALGFDALDAATATPLVHDINDELAAAVRANPTRLAAFASLALKDPQSAARELERAIQKLGFRGVLLDGTTDGLFLDDPRFTPVFEAAVALNVPIYLHPAPPPESVFDTYFTGLPEGVGQMLSIAGWGWHAETALHTLRLITNGVFDRYPTLQLIIGHMGEMLPMALARTSKALSHAARLRQPVAAYFQSNIHLTTSGYFTQPPLRCALDVVGIDRLMFSIDYPFSANTLGRDYLTELEQTLTPEDLAKLIHRNAESLLNLS
B6: 79 (protein)
chain: MATTTTPSTLIATLESHLTPTLAFTSPTTSPTQPALHLIPPTTLTKLRNLGPGRVKDMHMLGHSRQIISHIPVAAPPQICSRFNDAIHAATMTNTAKFSVLAVLPTDGMEAAKELARCVSKYRFVGGVIGLNRGLRINGEGWEELWGLAERLRIPIMFREMWPLAFEIVDYQHHLPYSALGPILTQLHTSHTSSPLPLVRLYLSSVFDHYPSLRLVLAHPGSLPSLVPRIESLINSIPATDKPKRSFLDVWQHNIYLTTADAQDMSSLRALLEQIPVDRVLYASNYPFEERGNELMNELRESEFLTNIEWERVAWVNAETLFNLKEAGTKEARQLTTIPSSRS
modifications: Pyrenophora teres
B7: 52 (protein, listed as Streptomyces sp.)
chain: MAKIIALEEHFSDPAVAKAGAARAQALSPGFAASYSPASGLPYSPSPEVLENLAEKRLADMDAGGITMQVLSGLSAQTVPADVAPALVAGSNDKAAAAVRAHPDRFAAFAALPTAAPEAAVAELDRSVNELGFVGTLIMGRTEGEFLDAPRFEPILARAAALKVPVFLHPGVPPREITDSNYAAGLPTGIGTRLQTAAWGWHQETAVHFLHLVHSGVLDRYPDLQFILGHWGETIPFYLDRVDEALPQRATGLDRSFHEYFRENVYLAPSGMWSQAQLRFCLETFPLERIVFAVDYPFIGNEGAVPFLEKAELPEADKRKIAHENAERLLGL
B8: 54 (protein, listed as Streptomyces sp.)
chain: MAKIIALEEHFSDPAVAKAGAARAQALSPGFAASYSPASGLPYSPSPEVLENLAEKRLADMDAGGITMQVLSGLGAQTVPADVAPALVAGSNDKAAAAVRAHPDRFAAFAALPTAAPEAAVAELDRSINELGFVGTLIMGRTEGEFLDAPRFEPILARAAALKVPVFLHPGVPPREITDSNYAAGLPTGIGTRLQTAAWGWHQETAVHFLHLVHSGVLDRYPGLQFILGHWGEMIPFYLDRVDEALPQRATGLDRSFHEYFRENVYLAPSGMWSQAQLRFCLETVPLERIVFAVDYPFIGNEGAVPFLEKAELPEADKRKIAHENAERLLGL
B9: 87 (protein, listed as Novosphingobium sp.)
chain: MASDIATAADLQTGGRQGYLRIATEEAFATRDQIDVYLRMVRDGTADRGMTSLWGFYAQSPSARATQIIERLLDLGEQRLADMDAAGIDKAVLALTSPGVQPLLDMEEARRIAGNANDRLAERCAAHPDRFIGMTAVAPQDPQWSAREILRGATQLGFKGVQINSHTQGRYLDEPFFDPIFRALGDVGQPLYIHPGTPPDSMIGPLLDAGLDGAIYGFGVETGMHLLRLITAGIFDRYPDLQIMVGHMGEALPYWLYRLDYMHQAGIRSQRYERMRPLKRTIAGYFRSNVLVTCSGMAWEPAIQFARQVMGEDRVMYAMDYPYQYEADEVRALDVMDLSPESKRKFFQTNAERWFDL
B10: 81 (protein, listed as Verticillium dahliae)
chain: MAASTKPKVVDIHTHMYPPSYIDILTSRTAIPVVRTFPQAADPRLILLDAEQQALDAALQDPTAKPPGRPLTSHYASLDQKIHFMDTHSIDISVVSLANPWLDFIEPKEAAATARSVNDEFEAMCASQPGRLFFFAALPLTAPLPALLEAVRHVAELEHCRGVILGTSGLGSGLDDPELVPVLEAVAAAALTVFLHPHYGLPNDVWGPRASAEYGHVLPLALGFPMETTIAVARMYLAGVFDRVPALRMLLAHSGGTLPFLAGRIESCILHDGQLVAEGKVGAARRTIWDVLREQVYLDAVIYSEIGLKAAIAASGGADRLMFGTDHPFFPPLGTDEQAKKESRINAGGSRPMITGNAMINGHGGLCNHITQSDYQDVVL
B11: 2 (protein, listed as Serratia sp.)
chain: MAKIICLEEHTLDKALVMASMPAALEQAPFLSDWGKTVTDGNLPDRSRPQIEKNDLINIKGADIGRGRLDDMDVAGITMQVLSVGGFPHLISAAEGVDLNRAANDRLADAVNAHPDRFAAFATLPWAQPDSAEKELERAVKELGFKGALLNGRPSTHFLDHPDYDGLLARFNALGVPLYLHPGLPVRSVQQAYYGGFSDEVTARLSMFGWGWHHEAGIHLLRLILSGAFDKYPNLQVISGHWGEMLPFWLQRLDDSLPQAATGLRRTIAQTFKEQVYVTPSGMLTLPHFQFIYALLGAERIIFSVDYPYQTLDGVKAFIQSLPVPEEAKEAIAFRNAERLLGLTS
B12: 55 (protein, listed as Serratia sp.)
chain: MAKIICLEEHTLDKALVMASMPAALEQAPFLSDWGKTVTDGNLPDRSRPQIEKNDLINIKGADIGRGRLDDMDVAGITMQVLSVGGFPHLISAAEGVDLNRAANDRLADAVNAHPDRFAAFATLPWAQPDSAEKELERAVKELGFKGALLNGRPSTHFLDHPDYDGLLARFNALGVPLYLHPGLPVRSVQQAYYGGFSDEVTARLSMFGWGWHHEAGIHLLRLILSGAFDKYPNLQVISGHWGEMLPFWLQRLDDSLPQAATGLRRTIAQTFKEQVYVTPSGMLTLPHFQFIYALLGAERIIFSVDYPYQTLDGVKAFIQSLPVPEEAKEAIAFRNAERLLGLTS

What was measured:
[1] = Saturation mutagenesis of SEQ ID NO:109: dicamba decarboxylation activity of point mutants (carbon dioxide released); details: decarboxylation activity (carbon dioxide released) of point mutant compared with unmutated backbone protein; backbone SEQ ID NO: 109
[2] = 14C assay with IPTG-induced recombinant E. coli cells: 14CO2 captured from [14C]-carboxyl-labeled dicamba; details: for decarboxylation activity of dicamba: among the 108 sequences tested, recombinant E. coli cells; for Enzymatic Detection level: dicamba decarboxylation activity of the protein of the given SEQ ID NO, High / Low / No; for Dicamba Decarboxylase Activity: induced recombinant E. coli cells, [14C]-carboxyl-labeled dicamba, 14CO2 capture

| Molecule | Fold Activity [1] | decarboxylation activity of dicamba [2] | Enzymatic Detection level [2] | Dicamba Decarboxylase Activity [2] |
| --- | --- | --- | --- | --- |
| B1 | 1.5 | showed decarboxylation activity of dicamba | High | High |
| B2 | 2 | showed decarboxylation activity of dicamba | High | High |
| B3 | 1.3 | showed decarboxylation activity of dicamba | High | High |
| B4 | 1.7 | showed decarboxylation activity of dicamba | High | High |
| B5 | 1.6 | showed decarboxylation activity of dicamba | High | High |
| B6 | 0.9 | showed decarboxylation activity of dicamba | High | High |
| B7 | 1.9 | showed decarboxylation activity of dicamba | High | High |
| B8 | 1.4 | showed decarboxylation activity of dicamba | High | High |
| B9 | 1.4 | showed decarboxylation activity of dicamba | High | High |
| B10 | 1.2 | showed decarboxylation activity of dicamba | High | High |
| B11 | 1.1 | showed decarboxylation activity of dicamba | High | High |
| B12 | 1.5 | showed decarboxylation activity of dicamba | High | High |
